In US20140234336A1:

Target: HA of H3N2 influenza virus Wyomin/3/03.rg (influenza A virus H3N2 Wyomin/3/03.rg)
Assay: cell-based or functional assay

In the case of CT149 antibody, the MN titer is reported as 5 µg/mL.
